Measurements taken from patent publication US20150086555A1.

Experiments:
Settings in all cases: remark: other sources report otherwise
[1] = target: recombinant soluble homotrimeric HA of A/Wisconsin/67/05 (H3N2) (Influenza A virus A/Wisconsin/67/2005(H3N2)); test: HA microarray, BCC supernatant
[2] = target: recombinant soluble homotrimeric HA of A/Indonesia/5/05 (H5N1) (Influenza A virus A/Indonesia/5/2005(H5N1)); test: HA microarray, BCC supernatant
[3] = target: recombinant soluble homotrimeric HA of A/Netherlands/219/03 (H7N7) (Influenza A virus A/Netherlands/219/03(H7N7)); test: HA microarray, BCC supernatant
[4] = target: recombinant soluble homotrimeric HA of A/chicken/Vietnam/NCVD-016/08 (H5N1) (Influenza A virus A/chicken/Vietnam/NCVD-016/2008(H5N1)); test: HA microarray, BCC supernatant
[5] = target: recombinant soluble homotrimeric HA of A/Solomon Islands/3/06 (H1N1) (Influenza A virus A/Solomon Islands/3/2006(H1N1)); test: HA microarray, BCC supernatant
[6] = target: recombinant soluble homotrimeric HA of A/Anhui/1/05 (H5N1) (Influenza A virus A/Anhui/1/2005(H5N1)); test: HA microarray, BCC supernatant
[7] = target: recombinant soluble homotrimeric HA of A/northern shoveler/California/HKWF115/07 (H6) (Influenza A virus A/northern shoveler/California/HKWF115/2007(H6N1)); test: HA microarray, BCC supernatant
[8] = target: recombinant soluble homotrimeric HA of A/Japan/305/57 (H2N2) (Influenza A virus A/Japan/305/1957(H2N2)); test: HA microarray, BCC supernatant
[9] = target: recombinant soluble homotrimeric HA of A/duck/Yangzhou/02/05 (H8N4) (Influenza A virus A/duck/Yangzhou/02/2005(H8N4)); test: HA microarray, BCC supernatant
[10] = target: recombinant soluble homotrimeric HA of A/Vietnam/1203/04 (H5N1) (Influenza A virus A/VietNam/1203/2004(H5N1)); test: HA microarray, BCC supernatant
[11] = target: recombinant soluble homotrimeric HA of A/California/4/09 (H1N1) (Influenza A virus A/California/04/2009(H1N1)); test: HA microarray, BCC supernatant
[12] = target: recombinant homotrimeric HA A/Anhui/1/05 H5N1 (Influenza A virus A/Anhui/1/2005(H5N1)); test: protein microarray, purified IgG, trimeric HA
[13] = target: recombinant homotrimeric HA A/Wisconsin/67/05 H3N2 (Influenza A virus A/Wisconsin/67/2005(H3N2)); test: protein microarray, purified IgG, trimeric HA
[14] = target: recombinant homotrimeric HA A/Indonesia/5/05 H5N1 (Influenza A virus A/Indonesia/5/2005(H5N1)); test: protein microarray, purified IgG, trimeric HA
[15] = target: recombinant homotrimeric HA A/Solomon Islands/3/06 H1N1 (Influenza A virus A/Solomon Islands/3/2006(H1N1)); test: protein microarray, purified IgG, trimeric HA
[16] = target: recombinant homotrimeric HA A/Hong Kong/156/97 H5N1 (Influenza A virus A/Hong Kong/156/97 (H5N1)); test: protein microarray, purified IgG, trimeric HA
[17] = target: recombinant homotrimeric HA A/chicken/Vietnam/NCVD-016/08 H5N1 (Influenza A virus A/chicken/Vietnam/NCVD-016/2008(H5N1)); test: protein microarray, purified IgG, trimeric HA
[18] = target: recombinant homotrimeric HA A/Netherlands/219/03 H7N7 (Influenza A virus A/Netherlands/219/03(H7N7)); test: protein microarray, purified IgG, trimeric HA
[19] = target: recombinant homotrimeric HA A/northern shoveler/California/HKWF115/07 H6N4 (Influenza A virus A/northern shoveler/California/HKWF115/2007(H6N1)); test: protein microarray, purified IgG, trimeric HA
[20] = target: recombinant homotrimeric HA A/Vietnam/1203/04 H5N1 (Influenza A virus A/VietNam/1203/2004(H5N1)); test: protein microarray, purified IgG, trimeric HA
[21] = target: recombinant homotrimeric HA A/California/4/09 H1N1 (Influenza A virus A/California/04/2009(H1N1)); test: protein microarray, purified IgG, trimeric HA
[22] = target: recombinant homotrimeric HA A/Egypt/3300-NAMRU3/08 H5N1 (Influenza A virus A/Egypt/3300-NAMRU3/2008(H5N1)); test: protein microarray, purified IgG, trimeric HA
[23] = target: recombinant homotrimeric HA A/Hong Kong/2108/03 H9N2 (Influenza A virus A/HK/2108/2003(H9N2)); test: protein microarray, purified IgG, trimeric HA
[24] = target: recombinant homotrimeric HA A/South Carolina/1/18 H1N1 (Influenza A virus A/South Carolina/1/18 (H1N1)); test: protein microarray, purified IgG, trimeric HA
[25] = target: recombinant homotrimeric HA A/Japan/305/57 H2N2 (Influenza A virus A/Japan/305/1957(H2N2)); test: protein microarray, purified IgG, trimeric HA
[26] = target: recombinant soluble homotrimeric HA of A/swine/Ontario/01911-2/99 (H4N6) (Influenza A virus A/Swine/Ontario/01911-2/99 (H4N6)); test: HA microarray, BCC supernatant
[27] = target: recombinant homotrimeric HA A/Hong Kong/1073/99 H9N2 (Influenza A virus A/Hong Kong/1073/99 (H9N2)); test: protein microarray, purified IgG, trimeric HA

Row | Binder | Trimeric HA Binding: RLU [1] | Trimeric HA Binding: RLU [2] | Trimeric HA Binding: RLU [3] | Trimeric HA Binding: RLU [4] | Trimeric HA Binding: RLU [5] | Trimeric HA Binding: RLU [6] | Trimeric HA Binding: RLU [7] | Trimeric HA Binding: RLU [8] | Trimeric HA Binding: RLU [9] | Trimeric HA Binding: RLU [10] | Trimeric HA Binding: RLU [11] | Trimeric HA Binding: RLU [12] | Trimeric HA Binding: RLU [13] | Trimeric HA Binding: RLU [15] | Trimeric HA Binding: RLU [16] | Trimeric HA Binding: RLU [17] | Trimeric HA Binding: RLU [18] | Trimeric HA Binding: RLU [19] | Trimeric HA Binding: RLU [20] | Trimeric HA Binding: RLU [21] | other results
1 | TCN-552 (5249_I23) (antibody, V domains shown) VH: QVQVVQSGAEVKKPGSSVRVSCQASGGTFMNYAIIWVRRAPGQGLEWMGGIIPVFPTPNYAQMFQGRVTISTDESRSTSFLELTNLRYEDTAVYYCARRIYHGGNSGFDFWGQGTLVTVSS VL: EIVLTQSPATLSLSPGERATLSCRASQSVGNYLAWYQQKPGQAPRLLIYDSSNRAPGIPARFSGSGSGTDFTLTISSLAPEDFAVYYCQQRSKWPPMYSFGHGTKLEIK | 14800 RLU | 43600 RLU | 1240 RLU | 46200 RLU | 39300 RLU | 4160 RLU | 38400 RLU | 23800 RLU | 13100 RLU | 2730 RLU | 35300 RLU | 4520 RLU | 123 RLU | 19400 RLU | 16200 RLU | 4300 RLU | 470 RLU | 8970 RLU | 27000 RLU | 23900 RLU | Trimeric HA Binding: RLU [14]: 23600 RLU; Trimeric HA Binding: RLU [22]: 20300 RLU; Trimeric HA Binding: RLU [23]: 161 RLU; Trimeric HA Binding: RLU [24]: 14200 RLU; Trimeric HA Binding: RLU [25]: 24700 RLU
2 | TCN-539 (5056_A08) (antibody, V domains shown) VH: QVQLVESGGGVVQPGRSLRLSCAASEITFITYAMHWVRQAPGKGLEWVALISDDGSNKFYADSVKGRFTISRDNSKNTLYLQMNSLRAEDTAAYYCAREGVYFDSGTYRGYFDYWGQETLVTVSS VL: EIVLTQSPATLSLSPGERATLSCRASQSVSSYLAWYQQKPGQAPRLLIYDASNRATGIPARFSGSGSGTDFTLTISSLEPEDFAVYYCQQRSHWPPITFGQGTRLEIK | 715 RLU | – | 1700 RLU | 100 RLU | 239 RLU | 91 RLU | 814 RLU | 468 RLU | – | 545 RLU | – | 570 RLU | 8850 RLU | 1060 RLU | 103 RLU | 144 RLU | 161 RLU | 124 RLU | 636 RLU | 129 RLU | Trimeric HA Binding: RLU [26]: 1580 RLU; Trimeric HA Binding: RLU [27]: 416 RLU; Trimeric HA Binding: RLU [23]: 140 RLU; Trimeric HA Binding: RLU [24]: 60 RLU; Trimeric HA Binding: RLU [25]: 544 RLU
3 | TCN-553 (5261_C18) (antibody, V domains shown) VH: QVQVVQSGTEVKKPGSSVKVSCQTSGGRFMSYAITWVRQAPGQGLEWMGGIVPVFGTANYAQKFQGRVTITTDDSTRTAYMELSSLRSEDTAVYYCGFRYGSGYGFDSWGQGTLVTVSS VL: EIVLTQSPGTLSLSPGERATLSCRASQSVSSSYLAWYQKKPGQAPRLLIYGASTRATGIPDRFTGSGSGTDFTLSISRLEPEDFAVYYCQHFGTSVFTFGGGTKVEIK | 20000 RLU | 24400 RLU | 1840 RLU | 24200 RLU | 16300 RLU | 12600 RLU | 21700 RLU | 25500 RLU | 28000 RLU | 6560 RLU | 20300 RLU | 9030 RLU | 197 RLU | 24600 RLU | 24000 RLU | 12400 RLU | 499 RLU | 20200 RLU | 27200 RLU | 25100 RLU | Trimeric HA Binding: RLU [26]: 2580 RLU; Trimeric HA Binding: RLU [14]: 26000 RLU; Trimeric HA Binding: RLU [27]: 6690 RLU; Trimeric HA Binding: RLU [22]: 24600 RLU; Trimeric HA Binding: RLU [23]: 172 RLU; Trimeric HA Binding: RLU [24]: 20600 RLU; Trimeric HA Binding: RLU [25]: 25700 RLU
4 | TCN-555 (5246_L16) (antibody, V domains shown) VH: QVQLVQSGAEVKRPGSSVKVSCTASGGIFRKNAISWVRQAPGQGLEWMGGIIAVFNTANYAQKFQNRVKITADESGNTAYMELSSLTSDDTAVYYCASHPKYFYGSGSYPDFWGQGTLVTVSS VL: QSALTQPRSVSGSPGQSITISCTGGSSDIGASNSVSWYQQHPGKAPKLVIFDVTERPSGVPHRFSGSKSGNTASLTVSGLQPDDEADYFCCAYGGKYLVVFGGGTKVTVL | 9800 RLU | 34500 RLU | 3400 RLU | 22300 RLU | 26400 RLU | 1500 RLU | 49500 RLU | 2130 RLU | 18400 RLU | 876 RLU | 44900 RLU | 6630 RLU | 369 RLU | 17900 RLU | 13100 RLU | 4420 RLU | 1330 RLU | 15600 RLU | 26500 RLU | 25500 RLU | Trimeric HA Binding: RLU [14]: 15600 RLU; Trimeric HA Binding: RLU [27]: 3440 RLU; Trimeric HA Binding: RLU [22]: 20200 RLU; Trimeric HA Binding: RLU [23]: 302 RLU; Trimeric HA Binding: RLU [24]: 13700 RLU; Trimeric HA Binding: RLU [25]: 10700 RLU
5 | TCN-563 (5237_B21) (antibody, V domains shown) VH: QVQLAQSGAEVKRPGSSVKVSCTASGGIFRKNAISWVRQAPGQGLEWMGGIIAVFNTANYAQKFQGRVKITADESGNTAYMELSSLRSDDTAVYYCASHPKYFYGSGSYPDFWGQGTLVTVSS VL: QSALTQPRSVSGSPGQSVTISCTGSSSDVGASNSVSWYQQHPGKAPKLVIYDVTERPSGVPHRFSGSKSGNTASLTVSGLQPEDEADYFCCAYGGKYLVVFGGGTKVTVL | 40800 RLU | 39500 RLU | 7520 RLU | 41000 RLU | 30000 RLU | 9580 RLU | 27300 RLU | 6610 RLU | 46700 RLU | 4840 RLU | 45200 RLU | – | – | – | – | – | – | – | – | – | Trimeric HA Binding: RLU [26]: 4500 RLU
